Sequences and labels used below:
B1: library; numbered along this chain (parent)
chain: MNIQIGELAKRTACPVVTIRFYEQEGLLPPPGRSRGNFRLYGEEHVERLQFIRHCRSLDMPLSDVRTLLSYRKRPDQDCGEVNMLLDEHIRQVESRIGALLELKHHLVELREACSGARPAQSCGILQGLSDCVCDTRGTTAHPSD

In series [1] the parent is B1. Nature of the series: sfGFP reporter fluorescence (15 h) (µM FITC); higher = higher leak. Particulars: library round: Round 0; ligand: none. How it is done:
(§1)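 Cell-free (BL21 Star DE3 extract, PANOx-SP) biosensing: 1 µL Echo-assembled reactions with linear PbrR variant templates (5 nM) and pPbrR-sfGFP reporter, with 1 µM Pb (lead chloride), 30 µM Zn (zinc acetate) or no ligand; endpoint sfGFP fluorescence after 15 h at 30 °C, calibrated as µM FITC. Round 0 library (alanine scan, site saturation, combinatorial) of PbrR from Cupriavidus metallidurans; 2 biological replicates.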

Variants of B1 are the subject of series [2]. As to the kind of experiment: sfGFP reporter fluorescence (15 h) (µM FITC); higher = stronger transcriptional activation. To be noted: library round: Round 0. How it is done: as §1

± gives the standard deviation of the averaged measurements.

Turning to G36A, the figures for the sfGFP reporter fluorescence in series [1], in series [2] (ligand: 1 µM Pb) and in series [2] (ligand: 30 µM Zn) were 0.0665 ± 0.00078, 0.108 ± 0.0067 and 1.91 ± 0.2, respectively.

As for E23A, the sfGFP reporter fluorescence was 0.0608 ± 0.0015 in series [1], 0.05827 ± 0.00052 in series [2] (ligand: 1 µM Pb) and 0.104 ± 0.0026 in series [2] (ligand: 30 µM Zn).

On to V17A, for which the results for the sfGFP reporter fluorescence in series [1], in series [2] (ligand: 1 µM Pb) and in series [2] (ligand: 30 µM Zn) were 0.0568 ± 0.001, 0.0566 ± 0.0013 and 0.622 ± 0.11, respectively.

Regarding R20Q, the results for the sfGFP reporter fluorescence in series [1], in series [2] (ligand: 1 µM Pb) and in series [2] (ligand: 30 µM Zn) were 0.06212 ± 0.00026, 0.0607 ± 0.00078 and 0.074 ± 0.0031, respectively.

Consider R20C, for which the sfGFP reporter fluorescence in series [1] worked out at 0.063 ± 0.0015; in series [2] (ligand: 1 µM Pb) it was 0.0618 ± 0.00078; in series [2] (ligand: 30 µM Zn) it was 0.0634 ± 0.001.

R20E: the figures for the sfGFP reporter fluorescence in series [1], in series [2] (ligand: 1 µM Pb) and in series [2] (ligand: 30 µM Zn) were 0.0603 ± 0.0023, 0.0616 ± 0.0015 and 0.06175 ± 0.00026, respectively.

As for R20D, the figures for the sfGFP reporter fluorescence in series [1], in series [2] (ligand: 1 µM Pb) and in series [2] (ligand: 30 µM Zn) were 0.0614 ± 0.0023, 0.0616 ± 0.0015 and 0.0687 ± 0.0013, respectively.

Regarding R20A, the figures for the sfGFP reporter fluorescence in series [1], in series [2] (ligand: 1 µM Pb) and in series [2] (ligand: 30 µM Zn) were 0.05772 ± 0.00026, 0.0548 ± 0.0018 and 0.0572 ± 0.001, respectively.

Regarding R20T, the sfGFP reporter fluorescence amounted to 0.0625 ± 0.0018 in series [1], 0.0612 ± 0.0021 in series [2] (ligand: 1 µM Pb) and 0.06102 ± 0.00026 in series [2] (ligand: 30 µM Zn).

Consider R20S, for which the sfGFP reporter fluorescence worked out at 0.0634 ± 0.0021 in series [1], 0.061 ± 0.0023 in series [2] (ligand: 1 µM Pb) and 0.063 in series [2] (ligand: 30 µM Zn).

Take R20V: the sfGFP reporter fluorescence in series [1] amounted to 0.0623 ± 0.00052; in series [2] (ligand: 1 µM Pb), 0.0618 ± 0.0023; in series [2] (ligand: 30 µM Zn), 0.0627 ± 0.0026.

Consider R20I, for which the sfGFP reporter fluorescence in series [1] worked out at 0.0585 ± 0.00078; in series [2] (ligand: 1 µM Pb), 0.06285 ± 0.00026; in series [2] (ligand: 30 µM Zn) it was 0.142 ± 0.0057.

Turning to R20P, the sfGFP reporter fluorescence was determined as 0.06285 ± 0.00026 in series [1], 0.05974 ± 0.00052 in series [2] (ligand: 1 µM Pb) and 0.0673 ± 0.0013 in series [2] (ligand: 30 µM Zn).

For the variant R20K, the sfGFP reporter fluorescence in series [1] worked out at 0.0623 ± 0.001; in series [2] (ligand: 1 µM Pb), 0.0625 ± 0.0018; in series [2] (ligand: 30 µM Zn), 0.064 ± 0.00078.

Turning to R20Y, the sfGFP reporter fluorescence was found to be 0.06249 ± 0.00026 in series [1], 0.06377 ± 0.00052 in series [2] (ligand: 1 µM Pb) and 0.124 ± 0.0018 in series [2] (ligand: 30 µM Zn).

For the variant R20G, the sfGFP reporter fluorescence in series [1] is 0.05864 ± 0.00052; in series [2] (ligand: 1 µM Pb) it was 0.0563 ± 0.0018; in series [2] (ligand: 30 µM Zn), 0.0625 ± 0.0034.

R20L: the sfGFP reporter fluorescence in series [1] amounted to 0.06102 ± 0.00026; in series [2] (ligand: 1 µM Pb), 0.0597 ± 0.0026; in series [2] (ligand: 30 µM Zn), 0.0671 ± 0.0047.

In the case of R20F, the values for the sfGFP reporter fluorescence in series [1], in series [2] (ligand: 1 µM Pb) and in series [2] (ligand: 30 µM Zn) were 0.0566 ± 0.0013, 0.05846 ± 0.00026 and 0.0581 ± 0.0039, respectively.

With R20W, the sfGFP reporter fluorescence in series [1] came out at 0.0625 ± 0.0018; in series [2] (ligand: 1 µM Pb) it was 0.06157 ± 0.00052; in series [2] (ligand: 30 µM Zn), 0.063 ± 0.0015.

As to R20H, the sfGFP reporter fluorescence in series [1] was found to be 0.0618 ± 0.0044; in series [2] (ligand: 1 µM Pb) it was 0.0647 ± 0.0018; in series [2] (ligand: 30 µM Zn), 0.1048 ± 0.001.

On to R20N, for which the sfGFP reporter fluorescence in series [1] was 0.06304 ± 0.00052; in series [2] (ligand: 1 µM Pb), 0.0674 ± 0.001; in series [2] (ligand: 30 µM Zn), 0.102 ± 0.0044.

As for R20M, the sfGFP reporter fluorescence is 0.0607 ± 0.00078 in series [1], 0.06066 ± 0.00026 in series [2] (ligand: 1 µM Pb) and 0.0605 ± 0.0021 in series [2] (ligand: 30 µM Zn).

Take S34A: the sfGFP reporter fluorescence turned out to be 0.0645 ± 0.001 in series [1], 0.0654 ± 0.00078 in series [2] (ligand: 1 µM Pb) and 0.328 ± 0.018 in series [2] (ligand: 30 µM Zn).

As to I19A, the sfGFP reporter fluorescence in series [1] came to 0.0577 ± 0.0013; in series [2] (ligand: 1 µM Pb), 0.0592 ± 0.00078; in series [2] (ligand: 30 µM Zn), 0.08063 ± 0.00052.

R33N: the sfGFP reporter fluorescence in series [1] came out at 0.0632 ± 0.00078; in series [2] (ligand: 1 µM Pb), 0.0817 ± 0.028; in series [2] (ligand: 30 µM Zn) it was 0.06084 ± 0.00052.

Consider R33D, for which the results for the sfGFP reporter fluorescence in series [1], in series [2] (ligand: 1 µM Pb) and in series [2] (ligand: 30 µM Zn) were 0.0651 ± 0.00078, 0.06377 ± 0.00052 and 0.0652, respectively.

As to R33I, the sfGFP reporter fluorescence was found to be 0.05772 ± 0.00026 in series [1], 0.05662 ± 0.00026 in series [2] (ligand: 1 µM Pb) and 0.06542 ± 0.00026 in series [2] (ligand: 30 µM Zn).

On to R33G, for which the sfGFP reporter fluorescence was 0.0577 ± 0.00078 in series [1], 0.0575 ± 0.0015 in series [2] (ligand: 1 µM Pb) and 0.0599 ± 0.0018 in series [2] (ligand: 30 µM Zn).

For the variant R33Q, the sfGFP reporter fluorescence in series [1] is 0.0623 ± 0.001; in series [2] (ligand: 1 µM Pb), 0.0612 ± 0.001; in series [2] (ligand: 30 µM Zn) it was 0.0711 ± 0.0026.

For the variant R33E, the sfGFP reporter fluorescence in series [1] is 0.06157 ± 0.00052; in series [2] (ligand: 1 µM Pb) it was 0.06304 ± 0.00052; in series [2] (ligand: 30 µM Zn), 0.0715 ± 0.0031.

Regarding R33M, the sfGFP reporter fluorescence is 0.0629 ± 0.0013 in series [1], 0.0625 ± 0.0013 in series [2] (ligand: 1 µM Pb) and 0.0619 ± 0.0015 in series [2] (ligand: 30 µM Zn).

Turning to R33L, the sfGFP reporter fluorescence in series [1] is 0.0605 ± 0.001; in series [2] (ligand: 1 µM Pb) it was 0.06175 ± 0.00026; in series [2] (ligand: 30 µM Zn) it was 0.108 ± 0.0042.

For R33P, the sfGFP reporter fluorescence in series [1] was determined as 0.0607 ± 0.0013; in series [2] (ligand: 1 µM Pb) it was 0.05956 ± 0.00026; in series [2] (ligand: 30 µM Zn), 0.064 ± 0.00078.

On to R33H, for which the sfGFP reporter fluorescence in series [1] was found to be 0.0623 ± 0.00052; in series [2] (ligand: 1 µM Pb), 0.0607 ± 0.0029; in series [2] (ligand: 30 µM Zn), 0.0707.

Take R33T: the sfGFP reporter fluorescence in series [1] came to 0.0634; in series [2] (ligand: 1 µM Pb) it was 0.06267 ± 0.00052; in series [2] (ligand: 30 µM Zn), 0.06285 ± 0.00026.

As to R33A, the sfGFP reporter fluorescence in series [1] was 0.0614 ± 0.0023; in series [2] (ligand: 1 µM Pb), 0.0594; in series [2] (ligand: 30 µM Zn), 0.0625 ± 0.00078.

On to R33S, for which the results for the sfGFP reporter fluorescence in series [1], in series [2] (ligand: 1 µM Pb) and in series [2] (ligand: 30 µM Zn) were 0.0623 ± 0.00052, 0.0605 ± 0.0031 and 0.0656 ± 0.001, respectively.

With R33W, the sfGFP reporter fluorescence turned out to be 0.0636 ± 0.00078 in series [1], 0.0629 ± 0.0039 in series [2] (ligand: 1 µM Pb) and 0.0718 ± 0.0021 in series [2] (ligand: 30 µM Zn).

As for R33Y, the sfGFP reporter fluorescence in series [1] was 0.0647 ± 0.0013; in series [2] (ligand: 1 µM Pb), 0.0618 ± 0.0013; in series [2] (ligand: 30 µM Zn), 0.0702 ± 0.0029.

With R33F, the values for the sfGFP reporter fluorescence in series [1], in series [2] (ligand: 1 µM Pb) and in series [2] (ligand: 30 µM Zn) were 0.0599 ± 0.0018, 0.061 ± 0.0029 and 0.0665 ± 0.0044, respectively.

With R33V, the sfGFP reporter fluorescence worked out at 0.0607 ± 0.00078 in series [1], 0.05937 ± 0.00052 in series [2] (ligand: 1 µM Pb) and 0.0696 ± 0.0021 in series [2] (ligand: 30 µM Zn).

R33C: the figures for the sfGFP reporter fluorescence in series [1], in series [2] (ligand: 1 µM Pb) and in series [2] (ligand: 30 µM Zn) were 0.0592 ± 0.00078, 0.0607 ± 0.0023 and 0.0612 ± 0.0021, respectively.

Regarding R33K, the sfGFP reporter fluorescence in series [1] is 0.064 ± 0.0013; in series [2] (ligand: 1 µM Pb), 0.0634 ± 0.0042; in series [2] (ligand: 30 µM Zn), 0.112 ± 0.0065.

P31A: the results for the sfGFP reporter fluorescence in series [1], in series [2] (ligand: 1 µM Pb) and in series [2] (ligand: 30 µM Zn) were 0.05736 ± 0.00026, 0.0607 ± 0.0044 and 0.485 ± 0.04, respectively.
